Source: paper PMC8809517, “Cofactor-independent RNA editing by a synthetic S-type PPR protein”

T1: GFP-9S library array, motif 4 ND N98P;D124C (synthetic construct, N98P;D124C)
T1 chain: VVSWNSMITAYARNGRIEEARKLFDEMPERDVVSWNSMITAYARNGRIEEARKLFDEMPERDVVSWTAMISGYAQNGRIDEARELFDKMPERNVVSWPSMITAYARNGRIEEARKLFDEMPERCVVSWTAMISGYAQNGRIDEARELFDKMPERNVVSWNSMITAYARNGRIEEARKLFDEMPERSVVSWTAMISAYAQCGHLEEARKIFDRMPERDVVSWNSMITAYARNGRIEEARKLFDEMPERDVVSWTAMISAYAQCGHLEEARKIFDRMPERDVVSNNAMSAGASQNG

T2: GFP-9S library array, motif 4 ND N98C;D124T (synthetic construct, N98C;D124T)
T2 chain: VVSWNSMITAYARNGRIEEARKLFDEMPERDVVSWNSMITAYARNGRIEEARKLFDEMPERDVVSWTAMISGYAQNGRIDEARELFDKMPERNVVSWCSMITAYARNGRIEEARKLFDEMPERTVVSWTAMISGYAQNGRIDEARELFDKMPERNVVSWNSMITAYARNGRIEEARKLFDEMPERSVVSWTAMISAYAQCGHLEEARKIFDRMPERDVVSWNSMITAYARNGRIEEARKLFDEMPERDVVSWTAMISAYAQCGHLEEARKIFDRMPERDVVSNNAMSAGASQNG

T3: GFP-9S library array, motif 4 ND N98S;D124Q (synthetic construct, N98S;D124Q)
T3 chain: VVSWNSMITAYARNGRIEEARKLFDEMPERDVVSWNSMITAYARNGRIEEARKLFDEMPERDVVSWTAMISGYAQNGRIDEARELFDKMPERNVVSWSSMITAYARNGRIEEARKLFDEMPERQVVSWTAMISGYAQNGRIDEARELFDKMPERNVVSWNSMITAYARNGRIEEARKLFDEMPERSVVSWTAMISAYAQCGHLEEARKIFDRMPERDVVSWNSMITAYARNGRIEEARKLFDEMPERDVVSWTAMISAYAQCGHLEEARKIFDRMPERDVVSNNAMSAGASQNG

T4: GFP-9S library array, motif 4 ND N98K;D124S (synthetic construct, N98K;D124S)
T4 chain: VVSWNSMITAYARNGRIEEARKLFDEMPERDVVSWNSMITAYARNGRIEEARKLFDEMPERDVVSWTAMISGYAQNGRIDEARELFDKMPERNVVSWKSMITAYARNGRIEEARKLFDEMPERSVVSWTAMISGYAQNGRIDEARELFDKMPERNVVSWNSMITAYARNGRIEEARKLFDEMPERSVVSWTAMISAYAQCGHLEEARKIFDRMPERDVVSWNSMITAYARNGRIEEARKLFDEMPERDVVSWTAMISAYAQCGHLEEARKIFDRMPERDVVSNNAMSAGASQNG

T5: GFP-9S library array, motif 4 ND N98A;D124N (synthetic construct, N98A;D124N)
T5 chain: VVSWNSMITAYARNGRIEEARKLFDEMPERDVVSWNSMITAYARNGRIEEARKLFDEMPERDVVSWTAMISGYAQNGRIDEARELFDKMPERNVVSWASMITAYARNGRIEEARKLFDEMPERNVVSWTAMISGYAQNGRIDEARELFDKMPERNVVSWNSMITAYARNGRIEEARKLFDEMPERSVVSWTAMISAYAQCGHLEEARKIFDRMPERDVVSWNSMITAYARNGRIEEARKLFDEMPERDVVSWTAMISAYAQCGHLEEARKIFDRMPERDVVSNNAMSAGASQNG


Legend:
Assay in all cases: high-throughput RNA pulldown from lysate on Ni-NTA beads; HRP: 50 mM Tris pH 8, 150 mM NaCl, 1 mM beta-mercaptoethanol, 50 ug/ml BSA, 3 ug/ml yeast RNA, 0.5% heparin; ITC and FP: Tris pH 8, 200 mM KCl, 5% glycerol; MST: 50 mM Tris pH 8, 200 mM NaCl, 1 mM DTT, BSA, heparin, 0.05% Tween 20
Conditions in all cases: tags: N-terminal His-eGFP
[1] = target: T1, GFP-9S library array, motif 4 ND …
[2] = target: T2, GFP-9S library array, motif 4 ND …
[3] = target: T3, GFP-9S library array, motif 4 ND …
[4] = target: T4, GFP-9S library array, motif 4 ND …
[5] = target: T5, GFP-9S library array, motif 4 ND …

Binder | Kd ([1]; label: 5' Cy5) | Kd ([2]; label: 5' Cy5) | Kd ([3]; label: 5' Cy5) | Kd ([4]; label: 5' Cy5) | Kd ([5]; label: 5' Cy5) | Kd ([1]; label: 5' IRDye 800CW) | Kd ([2]; label: 5' IRDye 800CW) | Kd ([3]; label: 5' IRDye 800CW) | Kd ([4]; label: 5' IRDye 800CW) | Kd ([5]; label: 5' IRDye 800CW)
AUUACACGUGA (ssRNA) [Cy5-rpoA] | 332 nM | 245 nM | 95.2 nM | 67.8 nM | 66 nM |  |  |  |  | 
AUUAAACGUGA (ssRNA) [IR-rpoA-A] |  |  |  |  |  | 660 nM | 150 nM | 40.3 nM | 120 nM | 137 nM
AUUAGACGUGA (ssRNA) [Cy5-rpoA-G] | 297 nM | 85.3 nM | 39.2 nM | 89.3 nM | 123 nM |  |  |  |  | 
AUUAUACGUGA (ssRNA) [IR-rpoA-U] |  |  |  |  |  | 874 nM | 155 nM | 179 nM | 40.8 nM | 44 nM
